Measured values from the DeepSol protein solubility set.

Assay: soluble on expression in E. coli; label from the status in PepcDB or PDB records

Sequence	soluble on expression in E. coli
MTQTVYVKLSQITQVHKKDVFLSDIADVYCSDKSTASRCKAVKVQTIHSDQEKRYMGSIVDVVQKISENVPEAEVNSVGETDFIIDYQPSKKPMYTWQW	not soluble
MTQTYNADAIEVLTGLEPVRRRPGMYTDTTRPNHLGQEVIDNSVDEALAGHAKRVDVILHADQSLEVIDDGRGMPVDIHPEEGVPAVELILCISVVNALSKRVEVNVRRDGQVYNIAFENGEKVQDLQVVGTCGKRNTGTSVHFWPDETFFDSPRFSVSRLTHVLKAKAVLCPGVEITFKDEINNTEQRWCYQD	soluble
MTRIIASLSEVSAGYSALFCDLWGCLHDGKRPFAEAVEALRAFRARGGTVLLMTNAPRPKPSVVRQLESIGVPPDCYDEVTSSGDAAQYALVTGAVGRRVYHLGPQKDETFFTELSPDLQKVAATEAPIVRVPLEEAEGIVCTGLFDDLTETPEDYRATLLYAKTQGLKLLCANPDIVVDFGDKRIYCAGAIAEAYDAMGGQSLYFGKPHPPIYDLARRRLEALRPGVPADEILCVGDGIATDIRGAVAEGLDSLFITGGLAASVFGENGE	not soluble
MTRLTVFKPRSLVSILMFTTVWAVGSASASTLDLEAQRAQYDKAQRWLDEKNVAQYQRIRKQIDSYPLTPYLDYRAFLIDLGSKPPIAVRNFIDSHKEYPFSARIAAPYLDALARSKKWSALLQFQTQLPNGETYQCHYYNAKLQTGKRNEAFEGAKKLWLNGASIADACDPLFAEWDRVGGLSDDWVLKRALLAFEGRNRNLIVYLQKKLDGKKSQAKAQGMLELFDKPERVLAYSRKASQDPINQKLAELALQKWARSEPQEAQAVFNDVAKAQGWNQEQKGRVARFIAIRLMDTEEAAIAKWRDEVTRTSQDVRLIEARIRLALRENDWRGLSQWIAVLPEQERKTLRWQYWQGRSEIALGKKKEGTERLKALLGQRSFYSVAAAKILQQSVNYPTSTVTLDMKQIKAHKKALARIDELIALDKVPAAKSEWRWLLDRVSQKEKEMLAAYAADSGWYQMTIAATISASLWDNNQLRFPVVHQNLFTLHGRKNGVDPITLMSLARQESALNPDAQSPVGARGLMQIMPDTARYTARKYQLSYSNPDELYQVGKNIEIGSRYLSSLLERYDQNRILAFAAYNAGPSRVDSWLKRSQGKLDAYGFIEAIPFAETRGYVQNILMFETYYRDLMGVQGRFLNEHELNTKY	soluble
MTRQEELAAARAALHDLMTGKRVATVQKDGRRVEFTATSVSDLKKYIAELEVQTGMTQRRRGPAGFYV	soluble
MTRRDNEERVLHAATDTEQSQVTDLRQNVSATPLTDAEVGRLQLLEERATVQVERQGIGQVQVRKVVRERQEMVPVTLTTEVLEIVVTPAAQGTGAQNVGDTQTAAASAAGTTGNGGVSQVLIDGKPLEAGQTYEIPLTEERVQVMRQVVPLSEVVVRRQAQATTHEETVTLRREELEVLDEQGLARIVDEGAALEHHHHHH	soluble
MTRSEKTRHFGNQNYEKLRKICIKKKQPFVDTLFPPTNQSLFLEQRQSSDIVWKRPGELHPDPHLFVEGASPNDVTQGILGNCWFVSACSALTHNFKLLAQVIPDADDQEWSTKHAYAGIFRFRFWRFGKWVEVVIDDLLPTRDGKLLFARSKTPNEFWSALLEKAFAKLYGCYENLVGGHLSDALQDVSGGVAETLHVRKFLKDDPNDTELKLFNDLKTAFDKGALVVAAIAARTKEEIEESLDCGLVKGHAYAVSAVCTIDVTNPNERSFTSFIMGSKRKQNLIRLQNPWGEKEWNGAWSDDSPEWQNVSASQLSTMGVQPANSDSDDGDFWMPWESFVHYFTDISLCQLFNTSVFSFSRSYDEQIVFSEWTTNGKKSGAPDDRAGGCHNFKATFCNNPQYIFDIPSPNCSVMFALIQNDPSEGLKKREPFVTIGMHVMKVENNRQYRVHTAMHPIAISDYASGRSVYLHLQSLPRGRYLLIPTTFAPKEQTLFMLRVYSDEHIHFSPLTKHAPKLGLLKCKSAQSVTRLTIHGVDFNSASTGTHNVYAILKDSRKSFRTKTLSGVKSIQWDEQFLFHKSKNRQQYKIEVWEDRKMARDHLLAQSVIIALIDNENRDTTLQLTDPRGTVIGTVSVTVSAFDDPMYL	not soluble
